Reference: publication PMC12491506, “Identification of a RAB32-LRMDA-Commander membrane trafficking complex reveals the molecular mechanism of human oculocutaneous albinism type 7” (Nature Communications, 2025)

Biological target: T1, recombinant LRMDA (tag-less) (human, UniProt A0A087WWI0 1-226)
T1 construct: LRMDA, human, full-length, longer isoform (this isoform was used in all experiments); gene synthesised with codon optimisation for S. frugiperda; also called purified LRMDA; HaloTag-TEV-LRMDA after TEV cleavage; source: Sf21 insect cells (baculovirus), purified (HaloLink resin, TEV cleavage); not shown: HaloTag, N-terminal, cleaved
T1 sequence (looked up): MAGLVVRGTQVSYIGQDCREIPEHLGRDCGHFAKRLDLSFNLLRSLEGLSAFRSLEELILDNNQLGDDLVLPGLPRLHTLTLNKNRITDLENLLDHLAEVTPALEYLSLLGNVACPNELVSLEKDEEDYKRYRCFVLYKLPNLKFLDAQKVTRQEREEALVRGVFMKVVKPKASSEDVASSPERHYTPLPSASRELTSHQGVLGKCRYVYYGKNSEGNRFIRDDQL
Experiment: pull-down; 0.5 µM Retriever (His-tagged VPS29) on TALON resin with 1 µM LRMDA and 1 µM RAB32 together; 50 mM HEPES pH 7.2, 150 mM NaCl, 2 mM β-mercaptoethanol, 0.1% Triton X-100; 45 min at 4 °C; washes with 10 mM imidazole
Conditions: both partners purified

B1: recombinant RAB32 (tag-less) (natural protein, human, UniProt Q13637 1-225, looked up)
chain: MAGGGAGDPGLGAAAAPAPETREHLFKVLVIGELGVGKTSIIKRYVHQLFSQHYRATIGVDFALKVLNWDSRTLVRLQLWDIAGQERFGNMTRVYYKEAVGAFVVFDISRSSTFEAVLKWKSDLDSKVHLPNGSPIPAVLLANKCDQNKDSSQSPSQVDQFCKEHGFAGWFETSAKDNINIEEAARFLVEKILVNHQSFPNEENDVDKIKLDQETLRAENKSQCC
notes: RAB32, human, full-length; also called purified RAB32; GST-TEV-RAB32 after TEV cleavage; source: Sf21 insect cells (baculovirus), purified (Glutathione Sepharose 4b, TEV cleavage); not shown: GST, N-terminal, cleaved
binding result: binds
